Experimental findings from US20240317872A1 (WUXI BIOLOGICS IRELAND, published 2024) are described below.

Numbering of substitutions follows the chain as printed. Names may count otherwise.

To fix the notation:
B1: T8311-U14T2.G25R-1.uIgG1 (bispecific antibody)
heavy: not shown
light 1: SYELTQPPSVSVSPGQTASITCSGSELPKRYAYWYQQKPGQSIVRVIYKDSERPSGISERFSGSSSGNTATLTISGTQAMDEADYYCSSTYGDRKLPIFGGGTKLTVLGQPKAAPSVTLFPPSSEELQANKATLVCLISDFYPGAVTVAWKADSSPVKAGVETTTPSKQSNNKYAASSYLSLTPEQWKSHKSYSCQVTHEGSTVEKTVAPTECS
light 2: SYVLTQPPSVSVAPGQTARMTCGGDNIGIKIVHWYQQKAGQAPVLVVYDDNDRPSGIPDRFSGSNSGNTATLTISRVAAGDEADYYCQVWDRRSDHVVFGGGTKLTVLPDIQNPDPAVYQLRDSKSSDKSVCLFTDFDSQTQVSQSKDSDVYITDKCVLDMRSMDFKSNSAVAWSQKSDFACANAFQNSIIPEDTFFPSPESS
notes: Symmetric 2+2 format G25R, human IgG1 Fc; PD-L1 x 4-1BB; also called T8311-1
B2: T8311-U14T2.G25R-47.uIgG1 (bispecific antibody)
heavy: not shown
light 1: B1 light 1
light 2: SYVLTQPPSVSVAPGQTARMTCGGDNIGIKIVHWYQQKAGQAPVLVVYDDNDRPSGIPDRFSGSNSGNTATLTISRVAAGDEADYYCQVWDRRSDHVVFGGGTKLTVLPDIQNPDPAVYQLRDSKSSDKSVCLFTDFDSQTQVCQSKDSDVYITDKCVLDMRSMDFKSNSAVAWSQKSDFACANAFQCSIIPEDTFFPS
notes: also called T8311-47
B3: T8311-U14T2.G25R-54.uIgG1 (bispecific antibody)
heavy: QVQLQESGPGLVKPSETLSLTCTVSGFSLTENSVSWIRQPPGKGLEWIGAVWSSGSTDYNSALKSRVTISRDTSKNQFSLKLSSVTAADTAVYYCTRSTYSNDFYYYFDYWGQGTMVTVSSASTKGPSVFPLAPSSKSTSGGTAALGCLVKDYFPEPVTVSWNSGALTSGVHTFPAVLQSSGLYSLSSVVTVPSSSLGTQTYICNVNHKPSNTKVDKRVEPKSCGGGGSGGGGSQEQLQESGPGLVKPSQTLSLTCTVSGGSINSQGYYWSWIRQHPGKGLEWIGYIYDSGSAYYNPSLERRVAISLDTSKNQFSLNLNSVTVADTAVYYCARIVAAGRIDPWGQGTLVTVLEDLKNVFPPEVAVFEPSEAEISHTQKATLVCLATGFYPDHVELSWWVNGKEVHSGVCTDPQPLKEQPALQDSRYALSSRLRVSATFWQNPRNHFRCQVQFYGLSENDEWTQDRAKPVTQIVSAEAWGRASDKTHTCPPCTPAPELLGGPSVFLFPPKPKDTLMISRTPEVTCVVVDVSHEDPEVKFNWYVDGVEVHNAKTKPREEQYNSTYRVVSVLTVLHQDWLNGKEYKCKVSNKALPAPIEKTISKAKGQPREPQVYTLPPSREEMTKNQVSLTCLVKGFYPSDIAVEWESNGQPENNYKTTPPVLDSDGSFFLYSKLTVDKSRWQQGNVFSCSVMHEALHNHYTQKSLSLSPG
light 1: B1 light 1
light 2: B2 light 2 with P116C, C144S, C188N, P192C
notes: also called T8311-54
B4: T8311-U14T2.G25R-49.uIgG1 (bispecific antibody)
heavy: not shown
light 1: B1 light 1
light 2: B2 light 2 with C144S, K147C
notes: also called T8311-49
B5: T8311-U14T2.G25R-52.uIgG1 (bispecific antibody)
heavy: not shown
light 1: B1 light 1
light 2: B2 light 2 with C188N, S189C
notes: also called T8311-52
B6: T8311-U14T2.G25R-61.uIgG1 (bispecific antibody)
heavy: not shown
light 1: B1 light 1
light 2: B2 light 2 with C144S, C188N, P198C
notes: also called T8311-61; Design-61
B7: T8311-U14T2.G25R-50.uIgG1 (bispecific antibody)
heavy: not shown
light 1: B1 light 1
light 2: B2 light 2 with Q142C, C144S, C188N, S189C
notes: also called T8311-50
B8: T8311-U14T2.G25R-53.uIgG1 (bispecific antibody)
heavy: not shown
light 1: B1 light 1
light 2: B2 light 2 with Q142C, C144S, C188N, I190C
notes: also called T8311-53
B9: T8311-U14T2.G25R-51.uIgG1 (bispecific antibody)
heavy: not shown
light 1: B1 light 1
light 2: B2 light 2 with V143C, C144S, C188N, S189C
notes: also called T8311-51
B10: T8311-U14T2.G25R-57.uIgG1 (bispecific antibody)
heavy: not shown
light 1: B1 light 1
light 2: B2 light 2 with P116C, C144S, C188N, D194C
notes: also called T8311-57; design 57
B11: T8311-U14T2.G25R-59.uIgG1 (bispecific antibody)
heavy: not shown
light 1: B1 light 1
light 2: B2 light 2 with A117C, C144S, C188N, F196C
notes: also called T8311-59
B12: T8311-U14T2.G25R-56.uIgG1 (bispecific antibody)
heavy: not shown
light 1: B1 light 1
light 2: B2 light 2 with T141C, C144S, C188N, P192C
notes: also called T8311-56
B13: T8311-U14T2.G25R-48.uIgG1 (bispecific antibody)
heavy: not shown
light 1: B1 light 1
light 2: B2 light 2 with C144S, S146C
notes: also called T8311-48
B14: T8311-U14T2.G25R-58.uIgG1 (bispecific antibody)
heavy: not shown
light 1: B1 light 1
light 2: B2 light 2 with P116C, C144S, C188N, T195C
notes: also called T8311-58

T1 sequence (Q9NZQ7 19-290): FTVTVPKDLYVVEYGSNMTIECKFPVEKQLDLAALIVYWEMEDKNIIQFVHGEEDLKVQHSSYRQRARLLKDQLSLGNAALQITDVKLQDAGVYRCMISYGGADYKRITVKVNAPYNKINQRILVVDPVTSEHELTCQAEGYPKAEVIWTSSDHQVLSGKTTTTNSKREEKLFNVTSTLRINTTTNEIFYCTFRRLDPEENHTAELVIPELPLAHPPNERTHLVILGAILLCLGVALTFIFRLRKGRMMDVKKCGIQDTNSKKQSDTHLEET

The assay addresses T1, Human PD-L1 (human, UniProt Q9NZQ7 19-290).
T1 construct: whole, on cells; also called target-A
The experiment in a line: flow cytometry on CHO-K1 cells expressing human PD-L1. As to the method: Human PD-L1-expressing cells W315-CHOK1.hPro1.C11 (×10^5 cells/well) and 4-1BB-expressing cells WBP342-CHO-K1.hPro1.C1 were incubated with various concentrations of testing antibodies at 4° C. for 1 hour. […] The cells were then washed and resuspended in DPBS with 1% BSA. MFI of the cells was measured by a flow cytometer and analyzed by FlowJo.
As shown in FIG. 7 and Table 7, compared to the reference molecule, the T8311 variants kept the target binding ability very well.
With B1, the response was half-maximal at 0.184 nM (EC50) and the “Top (MFI)” value amounted to 8330 MFI.

Consider B2, for which the 50% effective concentration (EC50) came out at 0.186 nM and the “Top (MFI)” value came to 8110 MFI.

With B3, the EC50 was found to be 0.23 nM and the “Top (MFI)” value came out at 8120 MFI.

As for B4, it took 0.153 nM to reach a half-maximal effect (EC50) and the “Top (MFI)” value was 8130 MFI.

With B5, the EC50 was found to be 0.187 nM and the “Top (MFI)” value is 8060 MFI.

Consider B6, for which the half-maximal effective concentration (EC50) was 0.179 nM and the “Top (MFI)” value came out at 7880 MFI.

Consider B7, for which the EC50 was 0.256 nM and the “Top (MFI)” value is 8130 MFI.

Take B8: the EC50 was determined as 0.22 nM and the “Top (MFI)” value is 8150 MFI.

On to B9, for which it took 0.213 nM to reach a half-maximal effect (EC50) and the “Top (MFI)” value is 8120 MFI.

On to B10, for which the EC50 came to 0.177 nM and the “Top (MFI)” value is 8150 MFI.

For B11, a half-maximal response (EC50) required 0.215 nM and the “Top (MFI)” value was determined as 7860 MFI.

Regarding B12, it took 0.192 nM to reach a half-maximal effect (EC50) and the “Top (MFI)” value is 8240 MFI.

Consider B13, for which the EC50 was found to be 0.205 nM and the “Top (MFI)” value stood at 8120 MFI.

For the molecule B14, the midpoint of the response, the EC50, lay at 0.19 nM and the “Top (MFI)” value is 7990 MFI.
